According to US20170015742A1 (published 2017):
Values joined by “and” are separate entries in the source; they are usually repeats but may differ in a detail not shown here. Equal values may be shown once.

Key:
human VEGF111 = molecular target: T1, human VEGF111 (human, UniProt P15692-10 27-137); assay: cell-based or functional assay
T1 sequence (looked up): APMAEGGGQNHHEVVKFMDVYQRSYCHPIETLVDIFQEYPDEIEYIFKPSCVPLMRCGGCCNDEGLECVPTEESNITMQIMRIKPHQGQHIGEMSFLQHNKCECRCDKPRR

Human VEGF-A 165 [1] = molecular target: T2, Human VEGF-A 165 (human, UniProt P15692 207-395); assay: cell-based or functional assay
Human VEGF-A 165 [2] = molecular target: T2, Human VEGF-A 165; assay: SPR (Biacore), antibody captured by anti-human Fc, hVEGF165 as analyte
Experimental: (§1) For example, approximately 9000 RU of goat anti-human Fc specific polyclonal antibody (Thermo Fisher Scientific Inc., Rockford, Ill.) diluted in 10 mM sodium acetate (pH 4.5) is directly immobilized across a CM5 research grade biosensor chip using a standard amine coupling kit according to manufacturer's instructions and procedures at 25 μg/ml. Unreacted moieties on the biosensor surface were blocked with ethanolamine. For kinetic analysis, rate equations derived from the 1:1 Langmuir binding model were fitted simultaneously to multiple antigen injections (using global fit analysis) with the use of Scrubber 2 (BioLogic Software), Biacore Biaevaluation 4.0.1 software or Biacore T100 Evaluation software. Purified antibodies or DVD-Ig molecules were diluted in running buffer for capture across goat anti-human Fc reaction surfaces. Antibodies or DVD-Ig molecules to be captured as a ligand (1 μg/ml) were injected over reaction matrices at a flow rate of 10 μl/minute. During the assay, all measurements were referenced against the capture surface alone (i.e., with no captured antibody or DVD-Ig molecule). […] The equilibrium dissociation constant KD (M) of the reaction between antibodies and the target antigen was then calculated from the kinetic rate constants by the following formula: KD=Koff/Kₒₙ. Binding was recorded as a function of time and kinetic rate constants were calculated.

Human VEGF-A 165 [3] = molecular target: T2, Human VEGF-A 165; assay: receptor competition ELISA: antibody titrated against biotinylated hVEGF165, binding to coated hVEGF-R2-Fc read
Experimental: To identify molecules that could block the binding of hVEGF₁₆₅ to the hVEGF-R2 (KDR/Flk-1) receptor, a competition ELISA was performed. […] Plates were then washed four times with wash buffer (TBS, 0.05% Tween-20) and blocked with Superblock blocking buffer (Thermo Scientific, cat#37535). […] The pre-incubated sample/hVEGF₁₆₅ complex was added to the coated plate at 50 μL in duplicate and incubated for 30 minutes at 25° C. with shaking. Following incubation, plates were washed four times with wash buffer. Streptavidin-polyHRP-40 (Fitzgerald cal#65r-s104phrp) was diluted in assay diluent (10% Superblock containing 0.05% surfactamps) and added to plates (50 μL) for 45 minutes at 25° C. with shaking. Plates were washed four times with wash buffer and developed with the addition of Enhanced K-blue TMB substrate (Neogen cat#308177). The reaction was stopped with 2N sulfuric acid (VWR, cat# BDH3500-1) and the absorbance was read at 450 nm-570 nm. A decrease in observed optical density indicates the test molecule is blocking the hVEGF₁₆₅ binding to the hVEGF-R2-Fc. Data was analyzed using Softmax Pro 4.8 software and IC₅₀ values calculated using a sigmoidal dose response (variable slope) fit in GraphPad Prism 5.

[4] = molecular target: T3, human VEGF 111 (PR-1520687) (human, UniProt P15692-10 27-137); assay: SPR (Biacore), mAb captured by anti-human Fc, antigen injected
T3 construct: also called hVEGF111
T3 sequence (looked up): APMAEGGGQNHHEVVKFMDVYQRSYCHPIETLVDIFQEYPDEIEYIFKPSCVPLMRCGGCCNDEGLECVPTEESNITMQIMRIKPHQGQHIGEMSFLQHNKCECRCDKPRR
Experimental: as §1, with “Unreacted” for “For example, approximately 9000 RU of goat anti-human Fc specific polyclonal antibody (Thermo Fisher Scientific Inc., Rockford, Ill.) diluted in 10 mM sodium acetate (pH 4.5) is directly immobilized across a CM5 research grade biosensor chip using a standard amine coupling kit according to manufacturer's instructions and procedures at 25 μg/ml. Unreacted”, “calculated. In this assay, on-rates as fast as 10⁶M⁻¹s⁻¹ and off-rates as slow as 10⁻⁶ s⁻¹ could be measured.” for “calculated.”

[5] = molecular target: T4, human VEGF 121 (PR-1515941) (human, UniProt P15692 207-395); assay: as above
T4 construct: Recombinant isoform; also called hVEGF121
T4 sequence: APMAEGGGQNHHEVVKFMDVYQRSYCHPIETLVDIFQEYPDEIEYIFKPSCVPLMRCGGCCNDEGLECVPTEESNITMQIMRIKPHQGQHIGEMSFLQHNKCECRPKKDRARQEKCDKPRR
Experimental: as §1, with “Unreacted” for “For example, approximately 9000 RU of goat anti-human Fc specific polyclonal antibody (Thermo Fisher Scientific Inc., Rockford, Ill.) diluted in 10 mM sodium acetate (pH 4.5) is directly immobilized across a CM5 research grade biosensor chip using a standard amine coupling kit according to manufacturer's instructions and procedures at 25 μg/ml. Unreacted”, “calculated. In this assay, on-rates as fast as 10⁶M⁻¹s⁻¹ and off-rates as slow as 10⁻⁶ s⁻¹ could be measured.” for “calculated.”

[6] = molecular target: T5, human VEGF 165 (PR-1350437) (human, UniProt P15692 207-395); assay: as above
T5 construct: Purified recombinant protein; also called hVEGF165
Experimental: as §1, with “Unreacted” for “For example, approximately 9000 RU of goat anti-human Fc specific polyclonal antibody (Thermo Fisher Scientific Inc., Rockford, Ill.) diluted in 10 mM sodium acetate (pH 4.5) is directly immobilized across a CM5 research grade biosensor chip using a standard amine coupling kit according to manufacturer's instructions and procedures at 25 μg/ml. Unreacted”, “calculated. In this assay, on-rates as fast as 10⁶M⁻¹s⁻¹ and off-rates as slow as 10⁻⁶ s⁻¹ could be measured.” for “calculated.”

cyno PDGF-B (PR-1575400) = molecular target: T6, cyno PDGF-B (PR-1575400) (cynomolgus monkey, UniProt P01127 82-190 (human entry), limits assumed); assay: as above
T6 construct: Recombinant; also called cynomolgus monkey PDGF-BB; cynoPDGF-BB
T6 chain: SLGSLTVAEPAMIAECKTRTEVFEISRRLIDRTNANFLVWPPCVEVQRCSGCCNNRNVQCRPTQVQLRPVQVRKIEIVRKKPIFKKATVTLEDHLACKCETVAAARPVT
Experimental: as §1, with “Unreacted” for “For example, approximately 9000 RU of goat anti-human Fc specific polyclonal antibody (Thermo Fisher Scientific Inc., Rockford, Ill.) diluted in 10 mM sodium acetate (pH 4.5) is directly immobilized across a CM5 research grade biosensor chip using a standard amine coupling kit according to manufacturer's instructions and procedures at 25 μg/ml. Unreacted”, “calculated. In this assay, on-rates as fast as 10⁶M⁻¹s⁻¹ and off-rates as slow as 10⁻⁶ s⁻¹ could be measured.” for “calculated.”

[7] = molecular target: T7, mouse PDGF-B (PR-1577160) (mouse, UniProt P31240 82-190); assay: as above
T7 construct: Recombinant; also called mouse PDGF-BB; mPDGF-BB
Experimental: as §1, with “Unreacted” for “For example, approximately 9000 RU of goat anti-human Fc specific polyclonal antibody (Thermo Fisher Scientific Inc., Rockford, Ill.) diluted in 10 mM sodium acetate (pH 4.5) is directly immobilized across a CM5 research grade biosensor chip using a standard amine coupling kit according to manufacturer's instructions and procedures at 25 μg/ml. Unreacted”, “calculated. In this assay, on-rates as fast as 10⁶M⁻¹s⁻¹ and off-rates as slow as 10⁻⁶ s⁻¹ could be measured.” for “calculated.”

[8] = molecular target: T8, human PDGF-B (PR-1373790) (human, UniProt P01127 82-190); assay: as above
T8 construct: Soluble recombinant PDGF-BB homodimer; also called human PDGF-BB; hPDGF-BB
Experimental: as §1, with “Unreacted” for “For example, approximately 9000 RU of goat anti-human Fc specific polyclonal antibody (Thermo Fisher Scientific Inc., Rockford, Ill.) diluted in 10 mM sodium acetate (pH 4.5) is directly immobilized across a CM5 research grade biosensor chip using a standard amine coupling kit according to manufacturer's instructions and procedures at 25 μg/ml. Unreacted”, “calculated. In this assay, on-rates as fast as 10⁶M⁻¹s⁻¹ and off-rates as slow as 10⁻⁶ s⁻¹ could be measured.” for “calculated.”

[9] = molecular target: T9, recombinant human PDGF-BB (human, UniProt P01127 82-190, biotin-labelled in the binding and competition ELISAs (sites not given)); assay: Biacore SPR, antibody captured, PDGF-BB injected
T9 construct: Bought protein (CST cat#8912BF) in the ELISAs and cell assays; purified recombinant PDGF-BB in Biacore; also called huPDGF-BB; hPDGF-BB
Experimental: as §1

T7 sequence (P31240 82-190 limits assumed): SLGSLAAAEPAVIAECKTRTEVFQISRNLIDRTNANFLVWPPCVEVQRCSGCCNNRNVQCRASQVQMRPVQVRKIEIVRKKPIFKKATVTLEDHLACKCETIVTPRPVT

B1: chBEW-9A8 (antibody, human IgG1, kappa, L234A L235A, V domains shown)
VH: QIQLVQSGPELKKPGESVKISCKASGYTFTNYGMYWVKQAPGQGLQYMGWINTETGKPIYADDFKGRFVFFLETSASTAYLQINNLKNEDMATFFCARVDYDGSFWFAYWGQGTLVTVSS
VL: DTVLTQSPALAVSPGERVSISCRASESVSTVIHWYQQKPGQQPKLLIHGASNLESGVPARFSGSGSGTDFTLTIDPVEADDTATYFCQQHWNDPPTFGAGTKLEMKR
Phospho-Tyr1054/huVEGF-A111 Neuterlization (human VEGF111): 0.26 nM
huVEGF-A165 Neutralization Potency in HMVEC-d cells (Human VEGF-A 165 [1]): 26 pM
Kd (Human VEGF-A 165 [2]): ≤ 0.11 pM
kon (Human VEGF-A 165 [2]): 8.9e+06 M⁻¹ s⁻¹
IC50 (Human VEGF-A 165 [3]): 97 pM

B2: AB642 (9E10.1), PR-1594047 (antibody, V domains shown)
VH: EIQLVQSGSELKKPGASVKVSCKASGYTFTNYGMYWVKQAPGQGLEYMGWIDTETGRPTYADDFKGRFVFSLDTSVSTAYLQISSLKAEDTAVYFCARWSGDTTGIRGPWFAYWGQGTLVTVSS
VL: DIRMTQSPSSLSASVGDRVTIECLASEDIYSDLAWYQQKPGKSPKLLIYNANGLQNGVPSRFSGSGSGTDYSLTISSLQPEDVATYFCQQYNYFPGTFGQGTKLEIK
notes: Parental anti-VEGF mAb of PR-1610561; Humanized IgG; also called hBEW-9E10.1
Kd [4]: 58 pM
koff [4]: 0.0001 s⁻¹
kon [4]: 1.8e+06 M⁻¹ s⁻¹
Kd [5]: 21 pM
koff [5]: 6.8e-05 s⁻¹
kon [5]: 3.2e+06 M⁻¹ s⁻¹
Kd [6]: 1.8 pM
koff [6]: 2.8e-05 s⁻¹
kon [6]: 1.6e+07 M⁻¹ s⁻¹

B3: chBEW-6C2 (antibody, human IgG1, kappa, L234A L235A, V domains shown)
VH: EVQLVESGGGLVQPGSSLKLSCAASGFTFSYYGMHWIRQAPKKGLEWMALIYYDSSKMYYADSVKGRFTISRDNSKNTLYLEMNSLRSEDTAMYYCAAGGTAPVYWGQGVMVTVSS
VL: NIQLTQSPSLLSASVGDRVTLSCKGSQNIANYLAWYQQKLGEAPKLLIYNTDSLQTGIPSRFSGSGSGTDYTLTISSLQPEDVATYFCYQSNNGYTFGAGTKLELRR
Phospho-Tyr1054/huVEGF-A111 Neuterlization (human VEGF111): 0.435 nM
huVEGF-A165 Neutralization Potency in HMVEC-d cells (Human VEGF-A 165 [1]): 31 pM
Kd (Human VEGF-A 165 [2]): 8.8 pM
kon (Human VEGF-A 165 [2]): 4.9e+06 M⁻¹ s⁻¹
IC50 (Human VEGF-A 165 [3]): 148 pM

B4: chBDB-4G8 (antibody, human IgG1, kappa, L234A L235A)
heavy: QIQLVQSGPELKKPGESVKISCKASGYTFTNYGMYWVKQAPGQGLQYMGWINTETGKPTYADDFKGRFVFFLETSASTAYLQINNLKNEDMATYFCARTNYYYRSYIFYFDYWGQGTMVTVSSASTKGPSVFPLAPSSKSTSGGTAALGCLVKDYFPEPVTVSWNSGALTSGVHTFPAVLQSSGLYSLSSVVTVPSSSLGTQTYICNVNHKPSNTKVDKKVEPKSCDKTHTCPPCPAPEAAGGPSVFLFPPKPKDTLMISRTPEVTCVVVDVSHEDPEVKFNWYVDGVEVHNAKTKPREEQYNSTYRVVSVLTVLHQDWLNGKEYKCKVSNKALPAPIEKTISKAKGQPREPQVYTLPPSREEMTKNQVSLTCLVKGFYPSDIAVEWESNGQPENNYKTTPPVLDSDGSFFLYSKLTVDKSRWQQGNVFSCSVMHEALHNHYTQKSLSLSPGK
light: DTVLTQSPALAVSPGERVSISCRASESVSTHMHWYQQKPGQQPKLLIYGASNLESGVPARFSGSGSGTDFTLTIDPVEADDTATYFCQQSWNDPFTFGAVTKLELKRTVAAPSVFIFPPSDEQLKSGTASVVCLLNNFYPREAKVQWKVDNALQSGNSQESVTEQDSKDSTYSLSSTLTLSKADYEKHKVYACEVTHQGLSSPVTKSFNRGEC
Phospho-Tyr1054/huVEGF-A111 Neuterlization (human VEGF111): 0.575 nM
huVEGF-A165 Neutralization Potency in HMVEC-d cells (Human VEGF-A 165 [1]): 195 pM
Kd (Human VEGF-A 165 [2]): 1.9 pM and 3.8 pM
kon (Human VEGF-A 165 [2]): 1.7e+07 M⁻¹ s⁻¹ and 1.2e+07 M⁻¹ s⁻¹
IC50 (Human VEGF-A 165 [3]): 157 pM

B5: CL-33675, PR-1593725 (antibody, V domains shown)
VH: EVTLRESGPALVKPTQTLTLTCTFSGFSLSTYGMGVGWIRQPPGKALEWLANIWWDDDKYYNPSLKNRLTISKDTSKNQVVLTMTNMDPVDTATYYCARIESSGPKYSFDYWGQGTMVTVSS
VL: EIVLTQSPGTLSLSPGERATLSCRASSGSIWYSFVSWYQQKPGQAPRLLIYADDQRASGIPDRFSGSGSGTDFTLTISRLEPEDFAVYYCQSYGINIDVVFGGGTKVEIK
notes: also called CL-33675-IgG
Kd (cyno PDGF-B (PR-1575400)): ≤ 1.3 pM
koff (cyno PDGF-B (PR-1575400)): 1.3e-05 s⁻¹
kon (cyno PDGF-B (PR-1575400)): ≥ 1e+07 M⁻¹ s⁻¹
Kd [7]: ≤ 0.58 pM
koff [7]: 5.8e-06 s⁻¹
kon [7]: ≥ 1e+07 M⁻¹ s⁻¹
Kd [8]: ≤ 0.58 pM
koff [8]: 5.8e-06 s⁻¹
kon [8]: ≥ 1e+07 M⁻¹ s⁻¹

B6: BFU-11A8-D6-C3 (antibody, V domains shown)
VH: EVQLQQSGPELQRPGASVKLSCKASGYTFTESYIYWVKQRPEQSLELIGRIDPEDGSTDYVEKFKNKATLTADTSSNTAYMQLSSLTSEDTATYFCARFGARSYFYPMDAWGQGTSVTVSS
VL: DTVLTQSPTLAVSPGERVSIPCRASESVSTLMHWYQQKPGQQPRLLIYGASNLESGVPARFSGSGSGTDFTLTIDPVEADDTATYFCQQSWNDPWTFGGGTKLELK
Kd [9]: ≤ 0.047 pM
koff [9]: ≤ 1e-06 s⁻¹
kon [9]: 2.1e+07 M⁻¹ s⁻¹
